# Reference: US20210246166A1 (Bayer, published 2021)
# Numbered stars: 1 amine (or outer) side, 2 acyl side, 3 side chain; on linkers, the order of the positions; unused ones are H or OH. Bridge positions count the residues as written; N and C are the ends. Square brackets hold non-standard residues; d marks the D form. Ends that are not written are not given here. (N-Benzyl)D = (2S)-2-Amino-4-(benzylamino)-4-oxobutanecarboxylic acid, O=C(C[C@H](N[*:1])C(=O)[*:2])NCc1ccccc1; X10 = (2R)‑2‑amino‑3‑(trifluoromethylsulfanyl)propanoic acid, O=C([C@H](CSC(F)(F)F)N[*:1])[*:2]; (S)‑3‑(2H-tetrazol-5-yl)propanoic acid = (S)-3-(2H-tetrazol-5-yl)propanoic acid; Phe(2,5-diF) = O=C([C@H](Cc1cc(F)ccc1F)N[*:1])[*:2]; NH(CH2CH2O)4CH2CO = O=C(COCCOCCOCCOCCN[*:1])[*:2]; PEG9 = NCCOCCOCCOCCOCCOCCOCCOCCOCCOCCC(=O)O; Pro(4-spirocPr) = O=C(O)[C@@H]1CC2(CC2)CN1; Oic = O=C(O)[C@@H]1C[C@@H]2CCCC[C@@H]2N1; tBuAla = CC(C)(C)C[C@H](N)C(=O)O; Pen = CC(C)(S)[C@H](N)C(=O)O; NMeC = CN[C@@H](CS)C(=O)O; NMeA = CN[C@@H](C)C(=O)O; Orn = NCCC[C@H](N)C(=O)O; PEG2 = NCCOCCOCCC(=O)O; dβPro = D-beta-Proline; Sar = CNCC(=O)O
# T1: recombinant human MASP1 active protease (amino acids 297-699, C-terminal His Tag) (human, UniProt P48740 297-699)
# T1 sequence: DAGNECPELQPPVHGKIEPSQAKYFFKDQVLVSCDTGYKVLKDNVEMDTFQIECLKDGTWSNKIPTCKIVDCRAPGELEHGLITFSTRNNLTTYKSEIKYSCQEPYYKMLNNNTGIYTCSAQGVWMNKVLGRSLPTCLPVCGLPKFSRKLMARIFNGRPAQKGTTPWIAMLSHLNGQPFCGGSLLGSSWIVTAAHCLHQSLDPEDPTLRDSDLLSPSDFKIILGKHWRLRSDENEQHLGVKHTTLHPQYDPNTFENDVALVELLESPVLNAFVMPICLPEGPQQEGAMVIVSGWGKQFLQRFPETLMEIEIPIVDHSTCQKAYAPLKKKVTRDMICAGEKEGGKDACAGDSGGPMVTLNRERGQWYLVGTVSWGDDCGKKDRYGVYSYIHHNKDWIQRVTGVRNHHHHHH
# T2: Recombinant human MASP1 enzyme (fragment corresponding to amino acids 297-699, C-terminal His Tag) (human, UniProt P48740 297-699)
# T2 sequence: T1 sequence
# B1: RIC+SRS-((tBu)A)-PPI-((N-Me)C)+I-NH2 (peptide)
# peptide: RICSRS[tBuAla]PPI[NMeC]I-NH2
# modifications: disulfide 3-11; N-terminus assumed
# SMILES: CC[C@H](C)[C@H](NC(=O)[C@@H]1CSSC[C@H](NC(=O)[C@@H](NC(=O)[C@@H](N)CCCNC(=N)N)[C@@H](C)CC)C(=O)N[C@@H](CO)C(=O)N[C@@H](CCCNC(=N)N)C(=O)N[C@@H](CO)C(=O)N[C@@H](CC(C)(C)C)C(=O)N2CCC[C@H]2C(=O)N2CCC[C@H]2C(=O)N[C@@H]([C@@H](C)CC)C(=O)N1C)C(N)=O
# B2: AIC+SRS-((tBu)A)-PPIC+I-NH2 (peptide)
# peptide: AICSRS[tBuAla]PPICI-NH2
# modifications: disulfide 3-11; N-terminus assumed
# SMILES: CC[C@H](C)[C@H](NC(=O)[C@@H]1CSSC[C@H](NC(=O)[C@@H](NC(=O)[C@H](C)N)[C@@H](C)CC)C(=O)N[C@@H](CO)C(=O)N[C@@H](CCCNC(=N)N)C(=O)N[C@@H](CO)C(=O)N[C@@H](CC(C)(C)C)C(=O)N2CCC[C@H]2C(=O)N2CCC[C@H]2C(=O)N[C@@H]([C@@H](C)CC)C(=O)N1)C(N)=O
# B3: AIC+SRSLP-((6S)-5-Azaspiro[2.4]heptane-6-carboxylic acid)-I-(Pen)+IPD-OH (peptide)
# peptide: AICSRSLP[Pro(4-spirocPr)]I[Pen]IPD-OH
# modifications: disulfide 3-11; N-terminus assumed
# SMILES: CC[C@H](C)[C@H](NC(=O)[C@H](C)N)C(=O)N[C@H]1CSSC(C)(C)[C@@H](C(=O)N[C@H](C(=O)N2CCC[C@H]2C(=O)N[C@@H](CC(=O)O)C(=O)O)[C@@H](C)CC)NC(=O)[C@H]([C@@H](C)CC)NC(=O)[C@@H]2CC3(CC3)CN2C(=O)[C@@H]2CCCN2C(=O)[C@H](CC(C)C)NC(=O)[C@H](CO)NC(=O)[C@H](CCCNC(=N)N)NC(=O)[C@H](CO)NC1=O
# B4: ((N-Me)G)-IC+SRS-((tBu)A)-PPI-(Pen)+IP-(PEG1(10 atoms))-NH2 (HCl salt) (peptide)
# peptide: [Sar]ICSRS[tBuAla]PPI[Pen]IP[PEG2]-NH2
# modifications: disulfide 3-11; also: HCl salt
# B5: ((N-Me)G)-IC+SRS-((tBu)A)-PPI-(Pen)+IP-(PEG9(31 atoms))-NH2 (peptide)
# peptide: [Sar]ICSRS[tBuAla]PPI[Pen]IP-{PEG9-NH2}
# modifications: disulfide 3-11
# B6: ((N-Me)G)-IC+SRS-((tBu)A)-PPI-(Pen)+IP-((S)-3-(2H-tetrazol-5-yl)propanoic acid)-NH2 (peptide)
# peptide: [Sar]ICSRS[tBuAla]PPI[Pen]IP[(S)‑3‑(2H-tetrazol-5-yl)propanoic acid]-NH2
# modifications: disulfide 3-11
# B7: KIC+SRS-((tBu)A)-PPI-((N-Me)C)+IPD-NH2 (peptide)
# peptide: KICSRS[tBuAla]PPI[NMeC]IPD-NH2
# modifications: disulfide 3-11; N-terminus assumed
# SMILES: CC[C@H](C)[C@H](NC(=O)[C@@H](N)CCCCN)C(=O)N[C@H]1CSSC[C@@H](C(=O)N[C@H](C(=O)N2CCC[C@H]2C(=O)N[C@@H](CC(=O)O)C(N)=O)[C@@H](C)CC)N(C)C(=O)[C@H]([C@@H](C)CC)NC(=O)[C@@H]2CCCN2C(=O)[C@@H]2CCCN2C(=O)[C@H](CC(C)(C)C)NC(=O)[C@H](CO)NC(=O)[C@H](CCCNC(=N)N)NC(=O)[C@H](CO)NC1=O
# B8: AIC+SRS-((tBu)A)-P-((6S)-5-Azaspiro[2.4]heptane-6-carboxylic acid)-I-(Pen)+IPD-NH2 (peptide)
# peptide: AICSRS[tBuAla]P[Pro(4-spirocPr)]I[Pen]IPD-NH2
# modifications: disulfide 3-11; N-terminus assumed
# SMILES: CC[C@H](C)[C@H](NC(=O)[C@H](C)N)C(=O)N[C@H]1CSSC(C)(C)[C@@H](C(=O)N[C@H](C(=O)N2CCC[C@H]2C(=O)N[C@@H](CC(=O)O)C(N)=O)[C@@H](C)CC)NC(=O)[C@H]([C@@H](C)CC)NC(=O)[C@@H]2CC3(CC3)CN2C(=O)[C@@H]2CCCN2C(=O)[C@H](CC(C)(C)C)NC(=O)[C@H](CO)NC(=O)[C@H](CCCNC(=N)N)NC(=O)[C@H](CO)NC1=O
# B9: ((N-Me)A)-IC+SRS-((tBu)A)-P-(Oic)-I-(Pen)+I-NH2 (peptide)
# peptide: [NMeA]ICSRS[tBuAla]P[Oic]I[Pen]I-NH2
# modifications: disulfide 3-11; N-terminus assumed
# SMILES: CC[C@H](C)[C@H](NC(=O)[C@H]1NC(=O)[C@H]([C@@H](C)CC)NC(=O)[C@@H]2C[C@@H]3CCCC[C@@H]3N2C(=O)[C@@H]2CCCN2C(=O)[C@H](CC(C)(C)C)NC(=O)[C@H](CO)NC(=O)[C@H](CCCNC(=N)N)NC(=O)[C@H](CO)NC(=O)[C@@H](NC(=O)[C@@H](NC(=O)[C@H](C)NC)[C@@H](C)CC)CSSC1(C)C)C(N)=O
# B10: AIC+SRS-((tBu)A)-P-((6S)-5-Azaspiro[2.4]heptane-6-carboxylic acid)-I-((N-Me)C)+IPD-NH2 (peptide)
# peptide: AICSRS[tBuAla]P[Pro(4-spirocPr)]I[NMeC]IPD-NH2
# modifications: disulfide 3-11; N-terminus assumed
# SMILES: CC[C@H](C)[C@H](NC(=O)[C@H](C)N)C(=O)N[C@H]1CSSC[C@@H](C(=O)N[C@H](C(=O)N2CCC[C@H]2C(=O)N[C@@H](CC(=O)O)C(N)=O)[C@@H](C)CC)N(C)C(=O)[C@H]([C@@H](C)CC)NC(=O)[C@@H]2CC3(CC3)CN2C(=O)[C@@H]2CCCN2C(=O)[C@H](CC(C)(C)C)NC(=O)[C@H](CO)NC(=O)[C@H](CCCNC(=N)N)NC(=O)[C@H](CO)NC1=O
# B11: ((N-Me)G)-IC+SRS-(2-Amino-5,5,5-trifluoro-4-methyl-pentanoic acid)-PPI-(Pen)+IPD-OH (peptide)
# peptide: [Sar]ICSRS[2‑Amino‑5,5,5‑trifluoro‑4‑methyl‑pentanoic acid]PPI[Pen]IPD-OH
# modifications: disulfide 3-11
# B12: (beta-p)-IC+SRS-((tBu)A)-PPI-(Pen)+IPD-OH (peptide)
# peptide: [dβPro]ICSRS[tBuAla]PPI[Pen]IPD-OH
# modifications: disulfide 3-11
# B13: ((N-Me)A)-IC+SRSLP-(Oic)-I-(Pen)+IP-((N-Benzyl)D)-NH2 (peptide)
# peptide: [NMeA]ICSRSLP[Oic]I[Pen]IP[(N-Benzyl)D]-NH2
# modifications: disulfide 3-11
# B14: ((N-Me)G)-IC+SRS-((2S)-2-Amino-5-methyl-hexanoic acid)-PPI-(Pen)+IPD-OH (peptide)
# peptide: [Sar]ICSRS[(2S)‑2‑Amino‑5‑methyl‑hexanoic acid]PPI[Pen]IPD-OH
# modifications: disulfide 3-11
# B15: ((N-Me)G)-IC+SRS-((2,5-Difluoro)F)-PPI-(Pen)+IPD-OH (peptide)
# peptide: [Sar]ICSRS[Phe(2,5-diF)]PPI[Pen]IPD-OH
# modifications: disulfide 3-11; N-terminus assumed
# SMILES: CC[C@H](C)[C@H](NC(=O)CNC)C(=O)N[C@H]1CSSC(C)(C)[C@@H](C(=O)N[C@H](C(=O)N2CCC[C@H]2C(=O)N[C@@H](CC(=O)O)C(=O)O)[C@@H](C)CC)NC(=O)[C@H]([C@@H](C)CC)NC(=O)[C@@H]2CCCN2C(=O)[C@@H]2CCCN2C(=O)[C@H](Cc2cc(F)ccc2F)NC(=O)[C@H](CO)NC(=O)[C@H](CCCNC(=N)N)NC(=O)[C@H](CO)NC1=O
# B16: ((2S)-2-(morpholin-4-yl)propanoic acid)-IC+SRSLP-(Oic)-I-(Pen)+IPD-OH (peptide)
# peptide: {(2S)‑2‑(morpholin-4-yl)propanoic acid}-ICSRSLP[Oic]I[Pen]IPD-OH
# modifications: disulfide 2-10
# B17: (Orn)-IC+SRS-((2R)-2-amino-3-(trifluoromethylsulfanyl)propanoic acid)-PPI-(Pen)+IPD-OH (peptide)
# peptide: [Orn]ICSRS[X10]PPI[Pen]IPD-OH
# modifications: disulfide 3-11; N-terminus assumed
# SMILES: CC[C@H](C)[C@H](NC(=O)[C@@H](N)CCCN)C(=O)N[C@H]1CSSC(C)(C)[C@@H](C(=O)N[C@H](C(=O)N2CCC[C@H]2C(=O)N[C@@H](CC(=O)O)C(=O)O)[C@@H](C)CC)NC(=O)[C@H]([C@@H](C)CC)NC(=O)[C@@H]2CCCN2C(=O)[C@@H]2CCCN2C(=O)[C@H](CSC(F)(F)F)NC(=O)[C@H](CO)NC(=O)[C@H](CCCNC(=N)N)NC(=O)[C@H](CO)NC1=O
# B18: AIC+SRSL-((1S,2S,5R)-3-Azabicyclo[3.1.0]hexane-2-carboxylic acid)-PI-(Pen)+IPD-OH (peptide)
# peptide: AICSRSL[(1S,2S,5R)‑3‑Azabicyclo(3.1.0)hexane‑2‑carboxylic acid]PI[Pen]IPD-OH
# modifications: disulfide 3-11
# B19: ((N-Me)G)-IC+SRS-((tBu)A)-PPI-(Pen)+IP-(PEG4-CH2CO2H(15 atoms))-OH (peptide)
# peptide: [Sar]ICSRS[tBuAla]PPI[Pen]IP[NH(CH2CH2O)4CH2CO]-OH
# modifications: disulfide 3-11; N-terminus assumed
# SMILES: CC[C@H](C)[C@H](NC(=O)CNC)C(=O)N[C@H]1CSSC(C)(C)[C@@H](C(=O)N[C@H](C(=O)N2CCC[C@H]2C(=O)NCCOCCOCCOCCOCC(=O)O)[C@@H](C)CC)NC(=O)[C@H]([C@@H](C)CC)NC(=O)[C@@H]2CCCN2C(=O)[C@@H]2CCCN2C(=O)[C@H](CC(C)(C)C)NC(=O)[C@H](CO)NC(=O)[C@H](CCCNC(=N)N)NC(=O)[C@H](CO)NC1=O
# Biological target: T1, recombinant human MASP1 active protease …
# Experiment: cell-based or functional assay
row,Binder,human MASP1 IC50 [nM]
1,B1,1.7
2,B2,1.7
3,B3,1.65
4,B4,1.7
5,B5,1.8
6,B6,1.8
7,B7,1.65
8,B8,1.83
9,B9,1.8
10,B10,1.8

# Biological target: recombinant human MASP2 active protease (amino acids 297-686, C-terminal His Tag) (human, UniProt O00187 297-686)
# Sequence (O00187 other isoform, or with tags, fused parts or gaps limits assumed): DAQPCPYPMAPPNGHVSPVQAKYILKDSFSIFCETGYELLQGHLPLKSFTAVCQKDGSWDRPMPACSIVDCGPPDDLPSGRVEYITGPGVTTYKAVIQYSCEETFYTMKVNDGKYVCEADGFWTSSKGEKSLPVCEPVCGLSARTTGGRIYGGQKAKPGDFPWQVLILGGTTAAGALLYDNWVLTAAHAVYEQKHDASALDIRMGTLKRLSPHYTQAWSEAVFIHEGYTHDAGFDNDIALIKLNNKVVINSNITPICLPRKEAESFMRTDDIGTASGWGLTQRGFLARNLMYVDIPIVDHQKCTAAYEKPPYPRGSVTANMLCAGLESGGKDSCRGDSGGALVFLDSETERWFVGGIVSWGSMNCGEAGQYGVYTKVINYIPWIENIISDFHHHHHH
# Experiment: cell-based or functional assay
row,Binder,human MASP2 IC50 [nM]
1,B1,87
2,B2,120
3,B3,26
4,B4,31
5,B5,73
6,B6,36
7,B7,120
8,B8,24.5
9,B9,76
10,B10,40

# Biological target: T2, Recombinant human MASP1 enzyme …
# Experiment: cell-based or functional assay
row,Binder,human MASP1 IC50 [nM]
1,B11,14
2,B12,2.5
3,B13,12
4,B14,65
5,B15,18
6,B16,70
7,B17,3.1
8,B18,1.7
9,B19,6.2

# Biological target: Recombinant human MASP2 enzyme (fragment corresponding to amino acids 297-686, C-terminal His Tag) (human, UniProt O00187 297-686)
# Sequence (O00187 other isoform, or with tags, fused parts or gaps limits assumed): as above
# Experiment: cell-based or functional assay
row,Binder,human MASP2 IC50 [nM]
1,B11,330
2,B14,70
3,B16,170
4,B18,27
5,B19,76
